Reference: patent US20260263563A1, “Method of Treatment of a Thoracolumbar Deformity in a Human Subject with Achondroplasia” (Ascendis Pharma Growth Disorders A/S, priority 2023, published 2026)
Like-named read-outs stand apart in the source and are kept apart here.

Assays:
[1] = tested on: prepubertal children with achondroplasia
Procedure: The study enrolled a minimum of 60 male and female prepubertal children with ACH aged 2 to 10 years old. The clinical trial is listed on www.clinicaltrials.gov under the ClinicalTrials.gov Identifier: NCT04085523. The objectives of the study were as follow:
This trial is a multicenter trial consisting of two treatment periods.
Participants should rest for at least 5 minutes before vital sign measurement and vital signs should be taken prior to any blood draws. The following vital signs should be measured: • Heart Rate (measured in beats per minute) • Blood Pressure (seated BP will be taken measured in mm Hg) • Temperature [measured in degrees Celsius (° C.) or Fahrenheit (° F.)]
All vital signs above must be measured at all visits. […] Orthostatic hypotension is defined as decrease in SBP of ≥20 mmHg (Stewart et al., Pediatrics, 141, 1-13, 2018). Accompanying tachycardia is defined as change of heart rate increment of ≥40 bpm and absolute orthostatic HR≥130 bpm (for ages 13 years and younger) (Singer et al., Journal of Pediatrics, 160, 222-226, 2012). Additionally, at Visit 1 and Visit 7 (in the Open-Label Extension Period), all vital signs must be monitored at 1 hour and 2 hours post injection of the study drug.

[2] = tested on: prepubertal children with achondroplasia; remark: listed apart in the source
Procedure: SF-10™ Health Survey for Children is a 10-item parent-completed survey that covers a wide range of domains affecting a child's functional health and well-being (QualityMetric.com), with 5 items primarily related to physical health (PhS), and 5 items primarily related to psyhocosial health (PsS).
The survey was conducted at the following time points; baseline and week 52.
SF-10 assesses, inter alia, physical health (PhS). 5 items of the SF-10 were selected for the assessment of physical health parameters as follows: • Limited in things that take some energy • Limited in bending, lifting, stooping • Limited in kind of schoolwork/activities due to physical health • Subjects health in general • How much bodily pain or discomfort
For each response provided by a subject, a value is assigned and used to calculate the overall physical summary score in accordance with established guidelines (See The SF-10 Health Survey for Children User's Guide by QualityMetric). For reference, in accordance with the User's Guide, the SF-10 scale scores were centered so that a score of 50 corresponds to an average score in a 2006 sample (a combination of general population and supplemental disability and chronic condition samples).

[3] = tested on: healthy adult male subjects
Fgfr3^Y367C/+ mice = tested on: Fgfr3^Y367C/+ mice
Excerpt: The Y367C mutation was introduced into exon 9 of the mouse Fgfr3 gene along with a NEO cassette flanked by LoxP recombination sites. Due to the CMV promoter, the expression of the Fgfr3 Fgfr3^Y367C/+ is ubiquitous. Off-spring consisted of both Fgfr3^Y367C/+ and Fgfr3+/+ wild-type (WT) littermates.
Survival of pups was monitored daily during the 15 days of treatment and registered in treatment diaries.

[4] = 57 patients followed for up to 65 weeks
[5] = more than 2,000 injections administered

With Navepegritide [Compound (1)] the “Serious TEAE” value ([1]; 6 μg/kg/week (n = 10)) was 1 (10.0), the “Subject with Treatment-Emergent Adverse Events (TEAE)” value (shortened to “Subject … (TEAE)”) ([1]; 6 μg/kg/week (n = 10)) was 9 (90.0) and the “Subjects with at Least One Treatment-Related TEAE” value ([1]; 6 μg/kg/week (n = 10)) was 3 (30.0). The “TEAE Grade 1” value ([1]; 6 μg/kg/week (n = 10)) was 9 (90.0), the “TEAE Grade 2” value ([1]; 6 μg/kg/week (n = 10)) was 3 (30.0) and the “Treatment-Related TEAE” value ([1]; 6 μg/kg/week (n = 10)) was 3 (30.0). The “Treatment-related: Abdominal pain upper” value ([1]; 6 μg/kg/week (n = 10)) was 0, the “Treatment-related: Dizziness” value ([1]; 6 μg/kg/week (n = 10)) was 0 and the “Treatment-related: Injection site reaction” value ([1]; 6 μg/kg/week (n = 10)) was 2 (20.0). The “Treatment-related: Overdose” value ([1]; 6 μg/kg/week (n = 10)) was 0, the “Treatment-related: Sleep terror” value ([1]; 6 μg/kg/week (n = 10)) was 0 and the “Treatment-related: Urticaria” value ([1]; 6 μg/kg/week (n = 10)) was 1 (10.0). For the same substance, the “Achondroplasia-Related TEAE” value ([1]; 6 μg/kg/week (n = 10), placebo 9 (60.0)) was 3 (30.0), the “Achondroplasia-Related TEAE” value ([1]; 20 μg/kg/week (n = 11)) was 4 (36.4) and the “Serious TEAE” value ([1]; 20 μg/kg/week (n = 11)) was 0. For the same substance, the “Subject … (TEAE)” value ([1]; 20 μg/kg/week (n = 11)) was 11 (100.0), the “Subjects with at Least One Treatment-Related TEAE” value ([1]; 20 μg/kg/week (n = 11)) was 2 (18.2) and the “TEAE Grade 1” value ([1]; 20 μg/kg/week (n = 11)) was 11 (100.0). For the same substance, the “TEAE Grade 2” value ([1]; 20 μg/kg/week (n = 11)) was 3 (27.3), the “Treatment-Related TEAE” value ([1]; 20 μg/kg/week (n = 11)) was 2 (18.2) and the “Treatment-related: Abdominal pain upper” value ([1]; 20 μg/kg/week (n = 11)) was 1 (9.1). The “Treatment-related: Dizziness” value ([1]; 20 μg/kg/week (n = 11)) was 0, the “Treatment-related: Injection site reaction” value ([1]; 20 μg/kg/week (n = 11)) was 1 (9.1) and the “Treatment-related: Overdose” value ([1]; 20 μg/kg/week (n = 11)) was 0. For the same substance, the “Treatment-related: Sleep terror” value ([1]; 20 μg/kg/week (n = 11)) was 0, the “Treatment-related: Urticaria” value ([1]; 20 μg/kg/week (n = 11)) was 0 and the “Achondroplasia-Related TEAE” value ([1]; 50 μg/kg/week (n = 10)) was 5 (50.0). For the same substance, the “Serious TEAE” value ([1]; 50 μg/kg/week (n = 10)) was 1 (10.0), the “Subject … (TEAE)” value ([1]; 50 μg/kg/week (n = 10)) was 10 (100.0) and the “Subjects with at Least One Treatment-Related TEAE” value ([1]; 50 μg/kg/week (n = 10)) was 3 (30.0). For the same substance, the “TEAE Grade 1” value ([1]; 50 μg/kg/week (n = 10)) was 10 (100.0), the “TEAE Grade 2” value ([1]; 50 μg/kg/week (n = 10)) was 3 (30.0) and the “Treatment-Related TEAE” value ([1]; 50 μg/kg/week (n = 10)) was 3 (30.0). For the same substance, the “Treatment-related: Abdominal pain upper” value ([1]; 50 μg/kg/week (n = 10)) was 0, the “Treatment-related: Dizziness” value ([1]; 50 μg/kg/week (n = 10)) was 0 and the “Treatment-related: Injection site reaction” value ([1]; 50 μg/kg/week (n = 10)) was 3 (30.0). For the same substance, the “Treatment-related: Overdose” value ([1]; 50 μg/kg/week (n = 10)) was 0, the “Treatment-related: Sleep terror” value ([1]; 50 μg/kg/week (n = 10)) was 0 and the “Treatment-related: Urticaria” value ([1]; 50 μg/kg/week (n = 10)) was 0. The “Achondroplasia-Related TEAE” value ([1]; 100 μg/kg/week (n = 11)) was 1 (9.1), the “Serious TEAE” value ([1]; 100 μg/kg/week (n = 11)) was 0 and the “Subject … (TEAE)” value ([1]; 100 μg/kg/week (n = 11)) was 10 (90.9). For the same substance, the “Subjects with at Least One Treatment-Related TEAE” value ([1]; 100 μg/kg/week (n = 11)) was 2 (18.2), the “TEAE Grade 1” value ([1]; 100 μg/kg/week (n = 11)) was 9 (81.8) and the “TEAE Grade 2” value ([1]; 100 μg/kg/week (n = 11)) was 1 (9.1). The “Treatment-Related TEAE” value ([1]; 100 μg/kg/week (n = 11)) was 2 (18.2), the “Treatment-related: Abdominal pain upper” value ([1]; 100 μg/kg/week (n = 11)) was 0 and the “Treatment-related: Dizziness” value ([1]; 100 μg/kg/week (n = 11)) was 0. For the same substance, the “Treatment-related: Injection site reaction” value ([1]; 100 μg/kg/week (n = 11)) was 2 (18.2), the “Treatment-related: Overdose” value ([1]; 100 μg/kg/week (n = 11)) was 0 and the “Treatment-related: Sleep terror” value ([1]; 100 μg/kg/week (n = 11)) was 0. For the same substance, the “Treatment-related: Urticaria” value ([1]; 100 μg/kg/week (n = 11)) was 0, the “reporting of achondroplasia related treatment emergent adverse events” value ([1]; 100 μg/kg/week dose group, 60% in the placebo group) was 9.1% and the AEs on orthostatism [1, 4] was “no AEs reported on orthostatism”. For the same substance, the “serious adverse events related to the trial drug” value [1, 4] was “no serious adverse events related to the trial drug”, the “withdrawals or discontinuations from the trial” value [1, 4] was “no withdrawals or discontinuations” and the “total AEs related to trial drug or procedures” value ([1]; 57 patients, more than 1900 injections) was 13. The “severity of ISRs” value ([1]; all ISRs) was “mild”, the injection site reactions ([1]; among more than 1900 injections) was 8 and the “number of injection site reactions (ISRs)” value [1, 5] was 11. The “number of patients with ISRs” value [1, 5] was 8, the tolerability of injections ([1]; weekly s.c. injections) was “well tolerated with a low frequency of injection site reactions” and the “SF-10 Physical Summary Score, Wk 52 (S.E)” value ([2]; 100 μg/kg (SC) weekly, week 52) was 40.70 (6.87). For the same substance, the “SF-10 Physical Summary Score, Change from Baseline” value ([2]; 100 μg/kg (SC) weekly, week 52, placebo −3.04 (3.82)) was “+5.91 (1.65)”, the “SF-10 PsS score” value ([2]; 100 μg/kg weekly, after 52 weeks of treatment) was “improvement trend” and the “SF-10 PhS score compared with baseline” value ([2]; 100 μg/kg weekly, week 52) was “marked increase”. For the same substance, the “SF-10 Physical Summary, treated versus placebo” value ([2]; 100 μg/kg/week for one year (n=19) vs placebo (n=15), p=0.002, ages 5 years and older) was “statistically significant improved outcome”, the “ACEM Emotional Well-being, treated versus placebo” value ([2]; 100 μg/kg/week for one year vs placebo, p=0.045) was “statistically significant improved outcome” and the “ACEM Daily Living Function, treated versus placebo” value ([2]; 100 μg/kg/week for one year vs placebo, p=0.047) was “statistically significant improved outcome”. For the same substance, the “blood pressure, heart rate, or safety laboratory test results” value ([3]; all investigated doses) was “No clinically relevant dose-dependent trends were observed”, the “mean apparent t1/2 of free CNP-38” value ([3]; single s.c. dose up to 150 μg CNP/kg, dose-independent) was 120 h and the immunogenic response ([3]; single s.c. doses) was “no evidence of immunogenic response”. For the same substance, the local tolerability findings ([3]; single s.c. doses) was “predominantly mild to moderate redness”, the “most commonly reported (≥10% of subjects) treatment-emergent adverse events” value ([3]; single s.c. doses) was “headache, contact dermatitis, postural dizziness, (orthostatic) tachycardia, dizziness, and orthostatic hypotension” and the “serious adverse effects or deaths” value ([3]; single s.c. doses) was “no serious adverse effects (AEs) or deaths reported”. The “severity of most TEAEs” value ([3]; single s.c. doses) was “mild or moderate”, the tolerability ([3]; single s.c. doses up to 150 μg CNP/kg, all investigated doses) was “generally well tolerated” and the “tolerability, adverse clinical signs” value (Fgfr3^Y367C/+ mice; Fgfr3^Y367C/+ pups, 15 days of treatment) was “well tolerated, and no adverse clinical signs were observed”. For the same substance, the “Number of mice surviving to day 15” value (Fgfr3^Y367C/+ mice; Fgfr3^Y367C/+ pups, 5.6 mg/kg/day s.c., 15 days from day 1 after birth, 14 mice included) was 12, the “Number of mice surviving to day 15” value (Fgfr3^Y367C/+ mice; Fgfr3^Y367C/+ pups, […] third day s.c., 13 mice included) was 11 and the “survival of pups compared with untreated pups” value (Fgfr3^Y367C/+ mice; either dose level, P<0.05, Log-rank (Mantel-Cox) test, untreated = vehicle treated and historic survival combined) was “significantly improved survival”. For the same substance, the “registered incidence of maternal infanticide” value (Fgfr3^Y367C/+ mice; treated groups) was “marked reduction”.
